For data set [1], the target named is 3XFLAG-TBP T114A (p3XFLAG-cmv10 construct) (human, UniProt P20226 1-339, T114A). Put plainly: co-IP.
Data set [2] can be described thus: IP and anti-phosphothreonine blot. The settings on record: glycan lost; control: TBP3X-WT cells.
The next data set in a line: ChIP-qPCR ± TMG. The settings on record: glycan lost; control: TBP3X-WT cells.
The nature of data set [3]: TBP:BTAF1 interaction under LG, HG, TMG, Ac4SGlcNAc. The settings on record: glycan lost; control: TBP3X-WT cells.

This note sets out measurements from publication PMC7061307 (Molecular cell, 2019).

B1: B-TFIID TATA-Box Binding Protein Associated Factor 1 (BTAF1), endogenous human (natural protein, UniProt O14981 1-1849, looked up)
chain: MAVSRLDRLFILLDTGTTPVTRKAAAQQLGEVVKLHPHELNNLLSKVLIYLRSANWDTRIAAGQAVEAIVKNVPEWNPVPRTRQEPTSESSMEDSPTTERLNFDRFDICRLLQHGASLLGSAGAEFEVQDEKSGEVDPKERIARQRKLLQKKLGLNMGEAIGMSTEELFNDEDLDYTPTSASFVNKQPTLQAAELIDSEFRAGMSNRQKNKAKRMAKLFAKQRSRDAVETNEKSNDSTDGEPEEKRRKIANVVINQSANDSKVLIDNIPDSSSLIEETNEWPLESFCEELCNDLFNPSWEVRHGAGTGLREILKAHGKSGGKMGDSTLEEMIQQHQEWLEDLVIRLLCVFALDRFGDFVSDEVVAPVRETCAQTLGVVLKHMNETGVHKTVDVLLKLLTQEQWEVRHGGLLGIKYALAVRQDVINTLLPKVLTRIIEGLQDLDDDVRAVAAASLVPVVESLVYLQTQKVPFIINTLWDALLELDDLTASTNSIMTLLSSLLTYPQVQQCSIQQSLTVLVPRVWPFLHHTISSVRRAALETLFTLLSTQDQNSSSWLIPILPDMLRHIFQFCVLESSQEILDLIHKVWMELLSKASVQYVVAAACPWMGAWLCLMMQPSHLPIDLNMLLEVKARAKEKTGGKVRQGQSQNKEVLQEYIAGADTIMEDPATRDFVVMRARMMAAKLLGALCCCICDPGVNVVTQEIKPAESLGQLLLFHLNSKSALQRISVALVICEWAALQKECKAVTLAVQPRLLDILSEHLYYDEIAVPFTRMQNECKQLISSLADVHIEVGNRVNNNVLTIDQASDLVTTVFNEATSSFDLNPQVLQQLDSKRQQVQMTVTETNQEWQVLQLRVHTFAACAVVSLQQLPEKLNPIIKPLMETIKKEENTLVQNYAAQCIAKLLQQCTTRTPCPNSKIIKNLCSSLCVDPYLTPCVTCPVPTQSGQENSKGSTSEKDGMHHTVTKHRGIITLYRHQKAAFAITSRRGPTPKAVKAQIADLPAGSSGNILVELDEAQKPYLVQRRGAEFALTTIVKHFGGEMAVKLPHLWDAMVGPLRNTIDINNFDGKSLLDKGDSPAQELVNSLQVFETAAASMDSELHPLLVQHLPHLYMCLQYPSTAVRHMAARCVGVMSKIATMETMNIFLEKVLPWLGAIDDSVKQEGAIEALACVMEQLDVGIVPYIVLLVVPVLGRMSDQTDSVRFMATQCFATLIRLMPLEAGIPDPPNMSAELIQLKAKERHFLEQLLDGKKLENYKIPVPINAELRKYQQDGVNWLAFLNKYKLHGILCDDMGLGKTLQSICILAGDHCHRAQEYARSKLAECMPLPSLVVCPPTLTGHWVDEVGKFCSREYLNPLHYTGPPTERIRLQHQVKRHNLIVASYDVVRNDIDFFRNIKFNYCILDEGHVIKNGKTKLSKAVKQLTANYRIILSGTPIQNNVLELWSLFDFLMPGFLGTERQFAARYGKPILASRDARSSSREQEAGVLAMDALHRQVLPFLLRRMKEDVLQDLPPKIIQDYYCTLSPLQVQLYEDFAKSRAKCDVDETVSSATLSEETEKPKLKATGHVFQALQYLRKLCNHPALVLTPQHPEFKTTAEKLAVQNSSLHDIQHAPKLSALKQLLLDCGLGNGSTSESGTESVVAQHRILIFCQLKSMLDIVEHDLLKPHLPSVTYLRLDGSIPPGQRHSIVSRFNNDPSIDVLLLTTHVGGLGLNLTGADTVVFVEHDWNPMRDLQAMDRAHRIGQKRVVNVYRLITRGTLEEKIMGLQKFKMNIANTVISQENSSLQSMGTDQLLDLFTLDKDGKAEKADTSTSGKASMKSILENLSDLWDQEQYDSEYSLENFMHSLK
As for B1, in data set [1], the “fold amount of BTAF1 co-IPed against TBP^WT” value is about 3 fold.

B2: TATA-box binding protein (TBP): TBP3X-T114A (protein)
parent chain: MDQNNSLPPYAQGLASPQGAMTPGIPIFSPMMPYGTGLTPQPIQNTNSLSILEEQQRQQQQQQQQQQQQQQQQQQQQQQQQQQQQQQQQQQQQQQAVAAAAVQQSTSQQATQGTSGQAPQLFHSQTLTTAPLPGTTPLYPSPMTPMTPITPATPASESSGIVPQLQNIVSTVNLGCKLDLKTIALRARNAEYNPKRFAAVIMRIREPRTTALIFSSGKMVCTGAKSEEQSRLAARKYARVVQKLGFPAKFLDFKIQNMVGSCDVKFPIRLEGLVLTHQQFSSYEPELFPGLIYRMIKPRIVLLIFVSGKVVLTGAKVRAEIYEAFENIYPILKGFRKTT
For B2, in data set [2], the “other: TBP phosphorylation” value is “no change”. Moreover, the “other: TMG-induced rise in promoter occupancy” value in the data set “ChIP-qPCR ± TMG” is listed as “abolishes”. Moreover, in data set [3], the “other: response of BTAF1 binding to glucose/TMG/Ac4SGlcNAc” value is reported as “abolishes”.
